One molecule from patent US20090175866A1, “TREATMENT OF B-CELL MALIGNANCIES” (priority 2004, published 2009) can be followed below.

One assay deals with T1, FGFR2 (Homo sapiens, UniProt P21802).
T1 construct: was transfected with full length FGFR1 (FDCP-FGFR1), FGFR2 (FDCP-FGFR2), FGFR3 (FDCP-FGFR3); expressed in transfected cells; host or cells: FDCP-1 mouse myeloid progenitor cell line
As to the kind of experiment: FGF-stimulated proliferation of FDCP-FGFR2 cells (XTT). The class given is cell-based. To be noted: up to 10 fold higher concentrations than the FDCP-FGFR3 IC50. The source says:
FIG. 1D is a graph showing proliferation of FGFR expressing FDCP cells in the presence of increasing concentrations of PRO-001 as determined by XTT analysis. Data are the average of duplicate cultures. The X axis represents concentration of PRO-001 Fab. The Y axis represents % inhibition.
Non-transformed rat chondrocyte cell line expressing PGFR3 in an inducible manner (RCJ-FGFR3) has been described previously (Rauchenberger R. et al. J. Biol. Chem. 2003; 278:38194-205). […]
(§1) Cell viability was assessed by 3-(4,5-dimethylthiazol)-2,5-diphenyl tetrazolium (MTT) or (2,3-bis(2-methoxy-4-nitro-5-sulphophenyl)-5-[(phenylamino) carbonyl]-2H-tetrazolium hydroxide (XTT) dye absorbance where indicated. Cells were seeded in 96-well plates at a density of 20,000 (FDCP-1 cells), 5,000 (B9 cells) or 25,000 cells (MM cell lines) per well in culture medium. Cells were incubated in the absence or presence of one of the following cytokines: 10 ng/ml FGF9 and 5 μg/ml heparin, 1% murine IL-6, 50 ng/ml IGF-1 or 50 ng/ml human IL-6 where indicated and increasing concentrations of PRO-001, control antibody (purified human Fab) or 100 nM PD173074. […]

Another assay concerns the target T2, FGFR3-G394D (Homo sapiens, UniProt P22607, G382D).
T2 construct: expressed in transfected cells; host or cells: B9 cells
In words: FGF-stimulated growth of B9 cells expressing G394D-FGFR3. The class given is cell-based. As for the experimental part:
(§2) Non-transformed rat chondrocyte cell line expressing PGFR3 in an inducible manner (RCJ-FGFR3) has been described previously (Rauchenberger R. et al. J. Biol. Chem. 2003; 278:38194-205). Cells were maintained in α-Minimum Essential Media supplemented with 15% fetal calf serum (FCS), 2 mM L-Glutamine, 100 U/ml penicillin, 100 μg/ml streptomycin, 600 μg/ml G418 (Gibco BRL, Ontario, Canada), 2 μg/ml Tetracyclin (Sigma, Ontario, Canada), and 50 μg/ml HygromycinB (Gibco BRL). FGFR3 expression was induced by removal of tetracyclin and serum starvation. […]
as §1

The test system of the next assay is UTMC2 cells. In words: Viability of stimulated UTMC2 myeloma cells (MTT). Format: cell-based, human. On the procedure:
FIG. 2 is a graph showing the viability of human myeloma cell lines in the presence of PRO-001. Viability is reported as the ratio between the optical density (OD) in the presence of FGF±inhibitor and the OD in the absence of FGF.
FIG. 4 is a graph showing viability of UTMC2 cells treated with FGF, IL6 or IGF-1. The dark bars represent stimulated cells treated with a control antibody; the dotted bar represents stimulated cells treated with 5 μg/ml PRO-001; the square-filled bar represents stimulated cells treated with 100 nM PD173074.
as §2, §1
PRO-001 was tested against t (4; 14) myeloma cell lines expressing FGFR3: UTMC2 cells—expressing WT FGFR3, and H929 cells—expressing WT FGFR3 but harboring a downstream activating mutation of N-Ras. Cell growth in the presence of FGF and PRO-001 (5 μg/ml), control antibody (isotype) or 100 nM PD173074 was determined by MTT assay. […]

T1 sequence (P21802 22-821, species assumed): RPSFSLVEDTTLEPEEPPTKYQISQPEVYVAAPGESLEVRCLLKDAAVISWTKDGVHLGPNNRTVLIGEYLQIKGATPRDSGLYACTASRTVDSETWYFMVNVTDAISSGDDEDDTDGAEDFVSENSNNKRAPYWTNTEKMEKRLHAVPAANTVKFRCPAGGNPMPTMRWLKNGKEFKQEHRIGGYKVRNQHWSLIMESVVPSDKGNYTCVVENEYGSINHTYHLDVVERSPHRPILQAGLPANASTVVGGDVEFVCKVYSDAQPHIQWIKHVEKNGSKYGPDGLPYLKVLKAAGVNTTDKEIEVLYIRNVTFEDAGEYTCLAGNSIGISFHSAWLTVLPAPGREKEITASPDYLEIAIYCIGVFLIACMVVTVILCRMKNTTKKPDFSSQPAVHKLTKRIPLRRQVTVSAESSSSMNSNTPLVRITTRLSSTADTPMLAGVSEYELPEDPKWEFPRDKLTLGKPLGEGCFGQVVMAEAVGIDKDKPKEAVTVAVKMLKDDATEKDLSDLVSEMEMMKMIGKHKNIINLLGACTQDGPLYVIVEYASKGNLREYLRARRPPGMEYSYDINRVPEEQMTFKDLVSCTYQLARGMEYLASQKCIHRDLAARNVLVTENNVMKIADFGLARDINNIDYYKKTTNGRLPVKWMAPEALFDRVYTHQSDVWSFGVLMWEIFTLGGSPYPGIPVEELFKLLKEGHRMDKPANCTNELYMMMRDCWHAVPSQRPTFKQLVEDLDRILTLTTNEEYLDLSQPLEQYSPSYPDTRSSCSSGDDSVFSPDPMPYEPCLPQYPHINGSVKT
T2 sequence (P22607 23-806 G382D): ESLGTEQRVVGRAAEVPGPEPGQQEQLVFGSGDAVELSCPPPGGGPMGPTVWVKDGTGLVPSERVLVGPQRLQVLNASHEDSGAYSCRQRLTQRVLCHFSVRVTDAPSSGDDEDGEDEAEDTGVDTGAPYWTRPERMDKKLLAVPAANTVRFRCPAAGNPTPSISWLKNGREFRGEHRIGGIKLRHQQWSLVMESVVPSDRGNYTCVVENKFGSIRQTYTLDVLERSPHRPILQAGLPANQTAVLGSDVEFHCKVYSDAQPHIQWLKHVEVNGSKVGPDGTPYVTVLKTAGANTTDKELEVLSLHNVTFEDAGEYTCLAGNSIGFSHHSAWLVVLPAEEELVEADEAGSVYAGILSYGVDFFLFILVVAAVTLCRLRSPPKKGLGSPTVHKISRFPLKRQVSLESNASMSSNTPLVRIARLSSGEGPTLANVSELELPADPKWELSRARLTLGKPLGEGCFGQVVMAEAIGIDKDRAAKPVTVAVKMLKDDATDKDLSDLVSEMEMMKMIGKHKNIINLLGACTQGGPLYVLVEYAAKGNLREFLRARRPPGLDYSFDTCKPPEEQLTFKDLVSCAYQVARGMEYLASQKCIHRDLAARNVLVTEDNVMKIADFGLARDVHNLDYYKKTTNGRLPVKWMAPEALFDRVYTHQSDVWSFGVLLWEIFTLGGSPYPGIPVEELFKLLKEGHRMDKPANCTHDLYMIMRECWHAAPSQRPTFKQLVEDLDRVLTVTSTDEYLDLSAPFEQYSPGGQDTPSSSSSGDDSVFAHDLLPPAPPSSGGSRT

B1: PRO-001: human anti-FGFR3 Fab from HuCAL library; VH-CDR3 SEQ ID NO:1, VL-CDR3 SEQ ID NO:10; VH SEQ ID NO:19, VL SEQ ID NO:28 (antibody, V domains shown)
VH: QVQLQQSGPGLVKPSQTLSLTCAISGDSVSSNSAAWNWIRQSPGRGLEWLGRTYYRSKWYNDYAVSVKSRITINPDTSKNQFSLQLNSVTPEDTAVYYCARSYYPDFDYWGQGTLVTVSS
VL: DIELTQPPSVSVAPGQTARISCSGDALGDKYASWYQQKPGQAPVLVIYDDSDRPSGIPERFSGSNSGNTATLTISGTQAEDEADYYCQSYDGPDLWVFGGGTKLTVLGQ
Consider B1, for which the “Proliferation of FDCP-1 cells expressing FGFR2” value with FGFR2 was “unaffected”. Further, the “IC50, FGF-stimulated growth of cells expressing G394D-FGFR3” value with FGFR3-G394D is “approximately 3 μg/ml”. In the assay on UTMC2 cells (5 μg/ml PRO-001), the “Viability of UTMC2 cells stimulated with IGF-1” value was “remain sensitive” and the “Viability of UTMC2 cells stimulated with IL6” value is “remain sensitive”. The “Proliferation of FGF-stimulated UTMC2 cells” value in the assay with UTMC2 cells (5 μg/ml, MTT) was “significantly inhibited”.
